Measurements published in article PMC4967961.

Experiments:
HuRΔIII (ΔRRMIII) [1] = molecular target: T1, HuRΔIII (ΔRRMIII) (UniProt Q15717 1-243); test: displacement from Ago2 miRNPs, HuR IP and qRT-PCR; 300 nM protein, 5 mM Mg2+, 30 C, 60 min; EMSA: 20 mM Tris-HCl pH 7.8, 150 mM KCl, 2 mM MgCl2, 0.1% Triton X-100, 0.5 mM DTT, heparin 5 mg/ml, BSA 1 mg/ml, 10% glycerol, on ice 15 min; 6% native PAGE, 0
HuRΔIII (ΔRRMIII) [2] = molecular target: T1, HuRΔIII (ΔRRMIII); test: EMSA; EMSA: 20 mM Tris-HCl pH 7.8, 150 mM KCl, 2 mM MgCl2, 0.1% Triton X-100, 0.5 mM DTT, heparin 5 mg/ml, BSA 1 mg/ml, 10% glycerol, on ice 15 min; 6% native PAGE, 0

T1 sequence (Q15717 1-243, stated change not applied): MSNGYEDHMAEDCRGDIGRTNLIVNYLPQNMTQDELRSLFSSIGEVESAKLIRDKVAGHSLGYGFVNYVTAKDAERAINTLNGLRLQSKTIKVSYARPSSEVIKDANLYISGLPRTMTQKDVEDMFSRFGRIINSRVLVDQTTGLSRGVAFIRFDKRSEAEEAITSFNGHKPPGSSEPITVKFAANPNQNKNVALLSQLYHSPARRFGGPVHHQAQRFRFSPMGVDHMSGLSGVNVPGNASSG

UGGAGUGUGACAAUGGUGUUUG (ssRNA) [miR-122 from cell-expressed Ago2 miRNPs] was tested, and the binding signal (HuRΔIII (ΔRRMIII) [1]) was ~14 fold reduction vs full-length HuR.

AUUAUUUAUUAUUUAUUUAUUAUUUAUUUAUUUA (ssRNA) [TNF-alpha 3'UTR ARE RNA]: binds (HuRΔIII (ΔRRMIII) [2]).
